Measured values: article PMC9482650, “Quantitative fragmentomics allow affinity mapping of interactomes” (Nature Communications, 2022)

T1: TJP3_3, O95049
T1 sequence (O95049 375-456, limits assumed, looked up): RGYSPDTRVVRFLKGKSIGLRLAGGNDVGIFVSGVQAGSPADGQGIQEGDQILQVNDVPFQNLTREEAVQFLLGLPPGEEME

T2: SNTG2, Q9NY99
T2 sequence (Q9NY99 68-166, limits assumed, looked up): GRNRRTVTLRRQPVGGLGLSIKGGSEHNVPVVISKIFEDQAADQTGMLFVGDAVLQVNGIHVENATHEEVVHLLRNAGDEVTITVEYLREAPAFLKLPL

T3: PDZD7_3, Q9H5P4
T3 sequence (Q9H5P4 857-944, limits assumed, looked up): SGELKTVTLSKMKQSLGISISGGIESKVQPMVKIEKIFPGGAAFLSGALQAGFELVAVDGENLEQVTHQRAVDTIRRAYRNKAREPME

T4: FRMPD1, Q5SYB0
T4 sequence (Q5SYB0 52-145, limits assumed, looked up): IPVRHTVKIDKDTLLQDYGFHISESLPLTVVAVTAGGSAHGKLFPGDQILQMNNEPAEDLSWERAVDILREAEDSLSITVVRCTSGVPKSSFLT

T5: DVL3, Q92997
T5 sequence (Q92997 244-331, limits assumed, looked up): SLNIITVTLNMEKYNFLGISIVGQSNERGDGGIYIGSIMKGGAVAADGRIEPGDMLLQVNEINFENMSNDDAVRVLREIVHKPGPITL

T6: PTPN13_1, Q12923
T6 sequence (Q12923 1088-1188, limits assumed, looked up): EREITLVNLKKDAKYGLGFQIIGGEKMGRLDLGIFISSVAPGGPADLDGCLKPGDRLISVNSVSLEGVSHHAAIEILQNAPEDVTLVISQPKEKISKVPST

T7: RHPN1, Q8TCX5
T7 sequence (Q8TCX5 508-602, limits assumed, looked up): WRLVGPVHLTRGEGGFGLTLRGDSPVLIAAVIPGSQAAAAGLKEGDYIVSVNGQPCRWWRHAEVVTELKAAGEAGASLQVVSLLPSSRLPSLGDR

T8: LIN7C, Q9NUP9
T8 sequence (Q9NUP9 88-185, limits assumed, looked up): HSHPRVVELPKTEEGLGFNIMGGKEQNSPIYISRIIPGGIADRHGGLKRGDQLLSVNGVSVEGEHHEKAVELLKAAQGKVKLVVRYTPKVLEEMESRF

T9: SNTA1, Q13424
T9 sequence (Q13424 82-180, limits assumed, looked up): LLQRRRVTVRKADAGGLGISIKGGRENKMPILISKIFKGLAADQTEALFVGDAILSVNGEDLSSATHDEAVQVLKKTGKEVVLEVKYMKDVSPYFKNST

T10: TX1BP3, O14907
T10 sequence (O14907 10-122, limits assumed, looked up): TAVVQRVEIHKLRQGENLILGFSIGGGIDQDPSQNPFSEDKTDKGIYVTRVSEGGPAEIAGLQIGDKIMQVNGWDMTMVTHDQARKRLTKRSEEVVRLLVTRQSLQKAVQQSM

T11: APBA3_1, O96018
T11 sequence (O96018 389-490, limits assumed, looked up): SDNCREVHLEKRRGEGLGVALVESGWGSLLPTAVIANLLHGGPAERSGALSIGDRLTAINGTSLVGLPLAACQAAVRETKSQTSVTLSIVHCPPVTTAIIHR

T12: HTRA3, P83110
T12 sequence (P83110 354-453, limits assumed, looked up): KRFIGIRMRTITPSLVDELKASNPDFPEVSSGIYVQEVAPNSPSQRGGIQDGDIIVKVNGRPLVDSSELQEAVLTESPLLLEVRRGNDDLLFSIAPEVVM


Target: T1, TJP3_3, O95049
Experiment: holdup assay
Parameters: key: below the threshold = too weak to quantify, mostly under pKd 3.1 to 4
Conditions: plain residues with an end cap or a label only (N-terminal biotin on a linker: ado-ado)

pKd | Binder
below the threshold | YPKQMPLSQV [FZD8, Q9H461]
below the threshold | QNRIITKTDV [SMCHD1, A6NHR9]

Target: ARHGEF12, Q9NZN5-2
Sequence (Q9NZN5 other isoform, or with tags, fused parts or gaps): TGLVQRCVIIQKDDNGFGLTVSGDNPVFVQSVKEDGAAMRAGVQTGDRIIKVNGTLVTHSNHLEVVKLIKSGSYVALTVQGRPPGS
Experiment: holdup assay
Parameters: key: below the threshold = too weak to quantify, mostly under pKd 3.1 to 4
Conditions: plain residues with an end cap or a label only (N-terminal biotin on a linker: ado-ado)

pKd | Binder
4.09 | YPKQMPLSQV [FZD8, Q9H461]
4.19 | QNRIITKTDV [SMCHD1, A6NHR9]

Target: MAST1, Q9Y2H9
Sequence (Q9Y2H9 962-1065): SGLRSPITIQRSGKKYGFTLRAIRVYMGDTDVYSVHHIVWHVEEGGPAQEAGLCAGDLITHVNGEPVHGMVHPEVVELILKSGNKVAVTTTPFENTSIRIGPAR
Experiment: holdup assay
Parameters: key: below the threshold = too weak to quantify, mostly under pKd 3.1 to 4
Conditions: plain residues with an end cap or a label only (N-terminal biotin on a linker: ado-ado)

pKd | Binder
4.09 | YPKQMPLSQV [FZD8, Q9H461]
below the threshold | QNRIITKTDV [SMCHD1, A6NHR9]

Target: T2, SNTG2, Q9NY99
Experiment: holdup assay
Parameters: key: below the threshold = too weak to quantify, mostly under pKd 3.1 to 4
Conditions: plain residues with an end cap or a label only (N-terminal biotin on a linker: ado-ado)

pKd | Binder
below the threshold | YPKQMPLSQV [FZD8, Q9H461]
below the threshold | QNRIITKTDV [SMCHD1, A6NHR9]

Target: T3, PDZD7_3, Q9H5P4
Experiment: holdup assay
Parameters: key: below the threshold = too weak to quantify, mostly under pKd 3.1 to 4
Conditions: plain residues with an end cap or a label only (N-terminal biotin on a linker: ado-ado)

pKd | Binder
4.17 | YPKQMPLSQV [FZD8, Q9H461]
4.13 | QNRIITKTDV [SMCHD1, A6NHR9]

Target: T4, FRMPD1, Q5SYB0
Experiment: holdup assay
Parameters: key: below the threshold = too weak to quantify, mostly under pKd 3.1 to 4
Conditions: plain residues with an end cap or a label only (N-terminal biotin on a linker: ado-ado)

pKd | Binder
below the threshold | YPKQMPLSQV [FZD8, Q9H461]
below the threshold | QNRIITKTDV [SMCHD1, A6NHR9]

Target: T5, DVL3, Q92997
Experiment: holdup assay
Parameters: key: below the threshold = too weak to quantify, mostly under pKd 3.1 to 4
Conditions: plain residues with an end cap or a label only (N-terminal biotin on a linker: ado-ado)

pKd | Binder
below the threshold | YPKQMPLSQV [FZD8, Q9H461]
below the threshold | QNRIITKTDV [SMCHD1, A6NHR9]

Target: T6, PTPN13_1, Q12923
Experiment: holdup assay
Parameters: key: below the threshold = too weak to quantify, mostly under pKd 3.1 to 4
Conditions: plain residues with an end cap or a label only (N-terminal biotin on a linker: ado-ado)

pKd | Binder
below the threshold | YPKQMPLSQV [FZD8, Q9H461]
below the threshold | QNRIITKTDV [SMCHD1, A6NHR9]

Target: T7, RHPN1, Q8TCX5
Experiment: holdup assay
Parameters: key: below the threshold = too weak to quantify, mostly under pKd 3.1 to 4
Conditions: plain residues with an end cap or a label only (N-terminal biotin on a linker: ado-ado)

pKd | Binder
4.34 | YPKQMPLSQV [FZD8, Q9H461]
below the threshold | QNRIITKTDV [SMCHD1, A6NHR9]

Target: T8, LIN7C, Q9NUP9
Experiment: holdup assay
Parameters: key: below the threshold = too weak to quantify, mostly under pKd 3.1 to 4
Conditions: plain residues with an end cap or a label only (N-terminal biotin on a linker: ado-ado)

pKd | Binder
below the threshold | YPKQMPLSQV [FZD8, Q9H461]
3.94 | QNRIITKTDV [SMCHD1, A6NHR9]

Target: PTPN3, P26045
Sequence (P26045 505-587): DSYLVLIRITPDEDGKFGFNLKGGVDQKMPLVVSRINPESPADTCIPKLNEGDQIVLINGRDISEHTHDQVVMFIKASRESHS
Experiment: holdup assay
Parameters: key: below the threshold = too weak to quantify, mostly under pKd 3.1 to 4
Conditions: plain residues with an end cap or a label only (N-terminal biotin on a linker: ado-ado)

pKd | Binder
below the threshold | YPKQMPLSQV [FZD8, Q9H461]
below the threshold | QNRIITKTDV [SMCHD1, A6NHR9]

Target: Inadl_5, Q8NI35
Sequence (Q8NI35 673-780): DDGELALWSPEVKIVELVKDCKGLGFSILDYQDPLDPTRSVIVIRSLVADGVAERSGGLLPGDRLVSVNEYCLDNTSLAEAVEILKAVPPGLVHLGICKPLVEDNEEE
Experiment: holdup assay
Parameters: key: below the threshold = too weak to quantify, mostly under pKd 3.1 to 4
Conditions: plain residues with an end cap or a label only (N-terminal biotin on a linker: ado-ado)

pKd | Binder
below the threshold | YPKQMPLSQV [FZD8, Q9H461]
below the threshold | QNRIITKTDV [SMCHD1, A6NHR9]

Target: FRMPD2_2, Q68DX3
Sequence (Q68DX3 944-1038): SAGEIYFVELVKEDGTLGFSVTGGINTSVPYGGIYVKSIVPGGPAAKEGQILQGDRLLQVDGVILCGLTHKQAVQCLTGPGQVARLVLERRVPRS
Experiment: holdup assay
Parameters: key: below the threshold = too weak to quantify, mostly under pKd 3.1 to 4
Conditions: plain residues with an end cap or a label only (N-terminal biotin on a linker: ado-ado)

pKd | Binder
below the threshold | YPKQMPLSQV [FZD8, Q9H461]
below the threshold | QNRIITKTDV [SMCHD1, A6NHR9]

Target: GRIP2_3, Q9C0E4
Sequence (Q9C0E4 238-339): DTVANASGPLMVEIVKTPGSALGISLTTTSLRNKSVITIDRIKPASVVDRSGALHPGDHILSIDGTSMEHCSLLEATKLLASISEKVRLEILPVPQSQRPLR
Experiment: holdup assay
Parameters: key: below the threshold = too weak to quantify, mostly under pKd 3.1 to 4
Conditions: plain residues with an end cap or a label only (N-terminal biotin on a linker: ado-ado)

pKd | Binder
below the threshold | YPKQMPLSQV [FZD8, Q9H461]
below the threshold | QNRIITKTDV [SMCHD1, A6NHR9]

Target: FRMPD2_1, Q68DX3
Sequence (Q68DX3 770-861): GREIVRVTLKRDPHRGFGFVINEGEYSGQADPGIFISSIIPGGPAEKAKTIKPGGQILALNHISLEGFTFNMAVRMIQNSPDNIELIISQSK
Experiment: holdup assay
Parameters: key: below the threshold = too weak to quantify, mostly under pKd 3.1 to 4
Conditions: plain residues with an end cap or a label only (N-terminal biotin on a linker: ado-ado)

pKd | Binder
below the threshold | YPKQMPLSQV [FZD8, Q9H461]
below the threshold | QNRIITKTDV [SMCHD1, A6NHR9]

Target: DLG2_3, Q15700
Experiment: holdup assay
Parameters: key: below the threshold = too weak to quantify, mostly under pKd 3.1 to 4
Conditions: plain residues with an end cap or a label only (N-terminal biotin on a linker: ado-ado)

pKd | Binder
below the threshold | YPKQMPLSQV [FZD8, Q9H461]
below the threshold | QNRIITKTDV [SMCHD1, A6NHR9]

Target: T9, SNTA1, Q13424
Experiment: holdup assay
Parameters: key: below the threshold = too weak to quantify, mostly under pKd 3.1 to 4
Conditions: plain residues with an end cap or a label only (N-terminal biotin on a linker: ado-ado)

pKd | Binder
3.67 | YPKQMPLSQV [FZD8, Q9H461]
3.61 | QNRIITKTDV [SMCHD1, A6NHR9]

Target: T10, TX1BP3, O14907
Experiment: holdup assay
Parameters: key: below the threshold = too weak to quantify, mostly under pKd 3.1 to 4
Conditions: plain residues with an end cap or a label only (N-terminal biotin on a linker: ado-ado)

pKd | Binder
below the threshold | YPKQMPLSQV [FZD8, Q9H461]
3.51 | QNRIITKTDV [SMCHD1, A6NHR9]

Target: T11, APBA3_1, O96018
Experiment: holdup assay
Parameters: key: below the threshold = too weak to quantify, mostly under pKd 3.1 to 4
Conditions: plain residues with an end cap or a label only (N-terminal biotin on a linker: ado-ado)

pKd | Binder
below the threshold | YPKQMPLSQV [FZD8, Q9H461]
below the threshold | QNRIITKTDV [SMCHD1, A6NHR9]

Target: FRMPD3, Q5JV73
Sequence (Q5JV73 12-100): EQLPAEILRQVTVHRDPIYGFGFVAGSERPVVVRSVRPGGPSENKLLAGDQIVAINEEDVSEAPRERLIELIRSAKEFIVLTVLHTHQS
Experiment: holdup assay
Parameters: key: below the threshold = too weak to quantify, mostly under pKd 3.1 to 4
Conditions: plain residues with an end cap or a label only (N-terminal biotin on a linker: ado-ado)

pKd | Binder
below the threshold | YPKQMPLSQV [FZD8, Q9H461]
below the threshold | QNRIITKTDV [SMCHD1, A6NHR9]

Target: Inadl_4, Q8NI35
Sequence (Q8NI35 547-651): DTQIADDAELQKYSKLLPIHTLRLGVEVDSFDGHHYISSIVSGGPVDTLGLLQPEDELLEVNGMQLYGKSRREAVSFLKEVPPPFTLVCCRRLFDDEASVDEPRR
Experiment: holdup assay
Parameters: key: below the threshold = too weak to quantify, mostly under pKd 3.1 to 4
Conditions: plain residues with an end cap or a label only (N-terminal biotin on a linker: ado-ado)

pKd | Binder
below the threshold | YPKQMPLSQV [FZD8, Q9H461]
below the threshold | QNRIITKTDV [SMCHD1, A6NHR9]

Target: T12, HTRA3, P83110
Experiment: holdup assay
Parameters: key: below the threshold = too weak to quantify, mostly under pKd 3.1 to 4
Conditions: plain residues with an end cap or a label only (N-terminal biotin on a linker: ado-ado)

pKd | Binder
below the threshold | YPKQMPLSQV [FZD8, Q9H461]
below the threshold | QNRIITKTDV [SMCHD1, A6NHR9]

Target: GORASP1, Q9BQQ3
Sequence (Q9BQQ3 1-208): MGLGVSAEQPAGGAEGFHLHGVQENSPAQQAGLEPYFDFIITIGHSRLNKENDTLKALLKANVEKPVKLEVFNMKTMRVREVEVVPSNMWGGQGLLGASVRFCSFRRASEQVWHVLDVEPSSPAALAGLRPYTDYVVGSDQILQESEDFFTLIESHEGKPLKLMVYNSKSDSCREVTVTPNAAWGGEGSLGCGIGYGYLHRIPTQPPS
Experiment: holdup assay
Parameters: key: below the threshold = too weak to quantify, mostly under pKd 3.1 to 4
Conditions: plain residues with an end cap or a label only (N-terminal biotin on a linker: ado-ado)

pKd | Binder
below the threshold | YPKQMPLSQV [FZD8, Q9H461]
below the threshold | QNRIITKTDV [SMCHD1, A6NHR9]

Target: PDZRN4_1, Q6ZMN7
Sequence (Q6ZMN7 213-318): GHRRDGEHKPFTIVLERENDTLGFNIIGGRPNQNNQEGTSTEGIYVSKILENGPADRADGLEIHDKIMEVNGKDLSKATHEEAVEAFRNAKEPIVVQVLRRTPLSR
Experiment: holdup assay
Parameters: key: below the threshold = too weak to quantify, mostly under pKd 3.1 to 4
Conditions: plain residues with an end cap or a label only (N-terminal biotin on a linker: ado-ado)

pKd | Binder
below the threshold | YPKQMPLSQV [FZD8, Q9H461]
below the threshold | QNRIITKTDV [SMCHD1, A6NHR9]

Target: MAGI2_4, Q86UL8
Sequence (Q86UL8 772-865): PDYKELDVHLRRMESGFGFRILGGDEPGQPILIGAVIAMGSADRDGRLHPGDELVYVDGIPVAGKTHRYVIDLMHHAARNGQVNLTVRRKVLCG
Experiment: holdup assay
Parameters: key: below the threshold = too weak to quantify, mostly under pKd 3.1 to 4
Conditions: plain residues with an end cap or a label only (N-terminal biotin on a linker: ado-ado)

pKd | Binder
below the threshold | YPKQMPLSQV [FZD8, Q9H461]
3.69 | QNRIITKTDV [SMCHD1, A6NHR9]
